± gives the standard deviation.
Test: protein stability index of a GFP-peptide fusion (GPS, HEK-293T) (PSI 1-6); higher = more stable
Settings: c terminus: a fixed tail appended
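Further: 24-mer peptide tiles fused after GFP, lentivirally expressed, FACS-sorted into six equal bins by GFP/DsRed ratio, decoded by Illumina sequencing, PSI is the read-weighted mean bin number.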

Row | Sequence | protein stability index (treatment: DMSO) | protein stability index (treatment: MLN4924 1 uM, 8 h)
1 | ELARIVLLRHRMNWLGRPSKVLSL [RAB40A] | 2.46 ± 0.73 | 2.43 ± 0.43
2 | QRGALPAPDPELAAEMYQRGRAVL [RSAD1] | 4.36 ± 0.18 | 4.38 ± 0.17
3 | ADVLLQAGADLEHESEGGRTPLMK [ANKRD17] | 5.17 ± 0.34 | 5.29 ± 0.15
4 | RLAQGNPQQGFFSSFFTCNQKCQL [ATP23] | 2.49 ± 0.45 | 2.53 ± 0.23
5 | MEGLETAEGSNSESSDDDSEEAPS [SDE2] | 5.51 ± 0.2 | 5.51 ± 0.39
6 | SNKKRPSLDGRDPGNGTHGLSPEE [ELOA2] | 5.36 ± 0.27 | 5.33 ± 0.23
7 | NDRDFLTRIFTEDRFAQDSEMKKC [PPEF2] | 4.61 ± 0.16 | 4.79 ± 0.21
8 | PSGNNGSVNWRTGSFHGPGHISLR [DLC1] | 3.09 ± 0.18 | 3.01 ± 0.19
9 | LSQSPEPGRRGDPDTAPPSERPLE [RTN2] | 5.56 ± 0.24 | 5.56 ± 0.15
10 | ESFFVDYEENEGAGPYLLNGSYLE [ADAMTSL2] | 3.658 ± 0.034 | 3.82 ± 0.072
11 | LLSTSLDAKDELEERLERCMSIVT [INTS3] | 3.38 ± 0.22 | 3.51 ± 0.37
12 | WVSTQLQATCNVHKSAFNDWFSGH [FADS1] | 2.75 ± 0.82 | 2.43 ± 0.54
13 | TQQNRKLTDFYPVRRSSRKSKAEL [KMT5A] | 2.97 ± 0.89 | 3.76 ± 0.29
14 | SVSWWGLSPALDLQAESPPVDPDS [DNAAF3] | 4.85 ± 0.12 | 4.944 ± 0.047
15 | TYSLVPKKKTKVLKQRTVIEMFKS [EHMT1] | 2.41 ± 0.21 | 2.58 ± 0.34
16 | GQTTGHPYYLRSFLVVLKTVLENE [FAN1] | 2.46 ± 0.5 | 2.21 ± 0.04
17 | PSHGEVGEHKDRIERQWGNLLGEG [ZSCAN9] | 4.47 ± 0.19 | 4.47 ± 0.36
18 | VCRARPRACSHLIRLMQRCWQGDP [RIPK4] | 2.21 ± 1.1 | 2.86 ± 0.35
19 | YNHQHKYFFLIGPPALLPLYFQWY [FADS1] | 3.18 ± 0.66 | 2.38 ± 0.32
20 | IGTMAGITTPIIDTFKVPKEMFTV [SLC6A17] | 2.45 ± 0.3 | 2.71 ± 0.24
21 | SKATFSRNIMNLIDIVAIIPYFIT [KCNA3] | 3.16 ± 0.52 | 3.32 ± 0.76
22 | SGSDVLDNVAYARAFNTDHQTQLL [RAD51] | 3.66 ± 0.21 | 3.73 ± 0.12

Row | Sequence | protein stability index (treatment: DMSO) | protein stability index (treatment: MLN4924 1 uM, 8 h)
23 | IGAAPFSGRRNWCSYVVTRTISCH [EMID1] | 2.23 ± 0.27 | 2.07 ± 0.23
24 | EERERKRRKEEEVQQQKLAEERRR [FAF2] | 5.34 ± 0.34 | 5.36 ± 0.25
25 | IVADILLYVVIPTRRSTAEAFQIV [SPNS1] | 2.97 ± 0.34 | 3.1 ± 0.18
26 | ALILHQRIHSGKKPYACDECAKAF [ZNF396] | 2.11 ± 0.26 | 2.84 ± 0.45
27 | ARRRKKILFYCHFPDLLLTKRDSF [ALG2] | 2.4 ± 0.56 | 2.04 ± 0.55
28 | GATALHFAAEAGHIDIVKELIKWR [FEM1B] | 2.39 ± 0.35 | 2.43 ± 0.33
29 | AFGWFRCSSCQRSWASAQVQILCH [RTP4] | 2.45 ± 0.37 | 2.68 ± 0.54
30 | CGPAEERVLLTGLHAVADIHCENC [YPEL3] | 3.25 ± 0.33 | 3.58 ± 0.67
31 | KNLFGPPLESAFDHEDFTGSSSLG [FCHO1] | 4.22 ± 0.13 | 4.37 ± 0.7
32 | NTLEGKKPGNNEGSGAPSPLSKSS [SNAP91] | 5.41 ± 0.23 | 5.35 ± 0.28
33 | GWFVRELRVEFAAENYLSGGGPGD [FBXO33] | 2.14 ± 0.27 | 2.21 ± 0.28
34 | RPLCAQGDWHSPTLIREKSFGACL [ELOA2] | 2.53 ± 0.19 | 2.6 ± 0.21
35 | FSDGEKCRREAFRRLGNGVSDDLS [PHTF1] | 4.05 ± 0.13 | 3.82 ± 0.17
36 | VCEQCLQILYESCPKYKFISCPTC [RNF208] | 4.06 ± 0.29 | 4.09 ± 0.5
37 | LALDSGASLLHLAVEAGQEECAKW [RIPK4] | 3.73 ± 1.2 | 3.46 ± 0.4
38 | EMPYNIWCDGCKNHIGMGVRYNAE [YJU2B] | 2.27 ± 0.32 | 2.49 ± 0.25
39 | CSPTAHDRECKLPPPSAPASEYCP [WDR88] | 4.55 ± 0.088 | 4.584 ± 0.039
40 | ARYIDTHNRVSKEDEDIYKLRHDL [PLK2] | 3.75 ± 0.3 | 3.8 ± 0.13
41 | YVHDPECVATTGDITVSVSTSFLP [FBXO3] | 2.46 ± 0.26 | 2.95 ± 0.15
42 | CFFRDHSYQEEAAMELKVEDPFYW [MOG] | 3.04 ± 0.23 | 3.02 ± 0.24
43 | IRLQAELEEGENPVPAFQSDGTDE [SMG5] | 5.27 ± 0.14 | 5.12 ± 0.23
44 | CTLEQDHFKKQTIYRFLKLHPRGK [FEM1C] | 2.43 ± 0.27 | 2.65 ± 0.37

Row | Sequence | protein stability index (treatment: DMSO) | protein stability index (treatment: MLN4924 1 uM, 8 h)
45 | TTVPDGPTQLRALNLTEGFAVLHW [TNXB] | 2.18 ± 0.098 | 2.05 ± 0.065
46 | VDQTGVSGGVASFICQATGDPRPK [PTPRD] | 4.62 ± 0.17 | 4.81 ± 0.2
47 | ERICSEEERAKAKHLARQLEEKDR [CHCHD3] | 5.4 ± 0.13 | 5.17 ± 0.35
48 | TPEPDTCHELLGHVPLLAEPSFAQ [TPH1] | 3.96 ± 0.27 | 3.91 ± 0.2
49 | SVVLRRARGGAVSARYVLPDEAAR [DUSP5] | 3.56 ± 0.33 | 3.55 ± 0.26
50 | ISCPTCRRETVLFTDYGLAALAVN [RNF208] | 2.15 ± 0.13 | 2.22 ± 0.28
51 | LKDTYASLGKTNVKDDELDAMLKE [MYL5] | 5.28 ± 0.21 | 5.35 ± 0.2
52 | LRPTSVDPALRRRRRGPRNKKRGW [NOP53] | 4.64 ± 0.56 | 4.29 ± 0.23
53 | GCILFEYYRGFTLFQTHENREHLV [CLK3] | 2.97 ± 0.85 | 2.21 ± 0.69
54 | KMPVLKAEASHYNSDLNNLLFCCQ [RHOBTB3] | 2.27 ± 0.41 | 2.29 ± 0.15
55 | EKKEKEKKKKDKEKEKEKHKVKAE [BRD3] | 5.41 ± 0.22 | 5.53 ± 0.42
56 | WWALSTCGYFQVVNYTQGLWEKVM [SLC19A2] | 2.75 ± 1.3 | 2.45 ± 0.73
57 | QLDIEEEGRPGAATFHVGGGPAQN [TFE3] | 5.26 ± 0.31 | 5.16 ± 0.32
58 | RPSTYYELLGVHPGASTEEVKRAF [DNAJC4] | 3.48 ± 0.21 | 3.86 ± 0.23
59 | VGVAGLISPWNLPLYLLTWKIAPA [ALDH8A1] | 2.92 ± 0.97 | 2.88 ± 0.95
60 | LRDPATITTLRVPVLRPMDLMVEA [PPP2R2B] | 2.85 ± 0.15 | 2.94 ± 0.37
61 | HRSACSSAAVRGHPRALPPDARPH [HAGHL] | 3.81 ± 0.19 | 3.77 ± 0.17
62 | HADCDRRSRIEALELLGASFANDR [FEM1B] | 3.98 ± 0.31 | 4.17 ± 0.19
63 | YLIMLPFRFTYYTILDIFRFALRF [FAF2] | 3.33 ± 0.26 | 3.25 ± 0.18
64 | LTQWKDSLVSLVLYNMDLSDDHIR [ZER1] | 2.52 ± 0.32 | 2.31 ± 0.097
65 | EKEFMKGNQLISNNIKFKKSSILT [CLCN6] | 3.46 ± 0.17 | 3.48 ± 0.38
